Test results published in PMC13016609, “UV irradiation alters TFAM binding specificity and compaction of DNA”.

Key:
Settings in all cases: protein: recombinant; label: 5' 6-FAM on strand 1; blunt
TFAM (no MTS) [1] = target: T1, TFAM (no MTS) (Homo sapiens, UniProt Q00059 43-246); assay: fluorescence anisotropy; +UVC; Hill n 2.19±0.06; FP: 25 mM HEPES, 10 mM Mg(OAc)2, 25 mM NaOAc, 75 mM KOAc, pH 7.5, 1 nM DNA, TFAM 0-15 nM diluted on ice (read temperature not stated); AFM oligos: on ice, 2 min
T1 sequence: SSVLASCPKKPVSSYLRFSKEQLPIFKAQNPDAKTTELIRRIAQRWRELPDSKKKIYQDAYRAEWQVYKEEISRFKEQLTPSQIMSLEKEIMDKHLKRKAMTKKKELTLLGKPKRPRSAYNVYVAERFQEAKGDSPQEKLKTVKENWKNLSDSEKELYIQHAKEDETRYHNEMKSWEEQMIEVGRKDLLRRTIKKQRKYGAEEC

TFAM (no MTS) [2] = target: T1, TFAM (no MTS); assay: fluorescence anisotropy; Hill n 2.46±0.23; FP: 25 mM HEPES, 10 mM Mg(OAc)2, 25 mM NaOAc, 75 mM KOAc, pH 7.5, 1 nM DNA, TFAM 0-15 nM diluted on ice (read temperature not stated); AFM oligos: on ice, 2 min
TFAM (no MTS) [3] = target: T1, TFAM (no MTS); assay: fluorescence anisotropy; +UVC; Hill n 2.33±0.10; FP: 25 mM HEPES, 10 mM Mg(OAc)2, 25 mM NaOAc, 75 mM KOAc, pH 7.5, 1 nM DNA, TFAM 0-15 nM diluted on ice (read temperature not stated); AFM oligos: on ice, 2 min
TFAM (no MTS) [4] = target: T1, TFAM (no MTS); assay: fluorescence anisotropy; Hill n 2.07±0.07; FP: 25 mM HEPES, 10 mM Mg(OAc)2, 25 mM NaOAc, 75 mM KOAc, pH 7.5, 1 nM DNA, TFAM 0-15 nM diluted on ice (read temperature not stated); AFM oligos: on ice, 2 min
TFAM (no MTS) [5] = target: T1, TFAM (no MTS); assay: fluorescence anisotropy; +UVC; Hill n 2.12±0.28; FP: 25 mM HEPES, 10 mM Mg(OAc)2, 25 mM NaOAc, 75 mM KOAc, pH 7.5, 1 nM DNA, TFAM 0-15 nM diluted on ice (read temperature not stated); AFM oligos: on ice, 2 min

B1: ND3_92 +UVC (dsDNA)
DNA 1: TTAGTAGCTATTACCTTCTTATTATTTGATCTA
DNA 2: TAGATCAAATAATAAGAAGGTAATAGCTACTAA
modifications: UVC 1500 J/m2 photolesions (positions undefined)
Work on B1 yielded a Kd (TFAM (no MTS) [1]) of 5.54 ± 0.14 nM.

B2: RNR2_619 (dsDNA)
DNA 1: ATTGATCCAATAACTTGACCAACGGAACAAGTT
DNA 2: AACTTGTTCCGTTGGTCAAGTTATTGGATCAAT
For B2, the Kd (TFAM (no MTS) [2]) was 4.89 ± 0.33 nM.

B3: RNR2_619 +UVC (dsDNA)
DNA 1: B2 DNA 1
DNA 2: B2 DNA 2
modifications: UVC 1500 J/m2 photolesions (positions undefined)
With B3 the Kd (TFAM (no MTS) [3]) was 8.13 ± 0.39 nM.

B4: COX1_27 (dsDNA)
DNA 1: AAGACATTGGAACACTATACCTATTATTCGGCG
DNA 2: CGCCGAATAATAGGTATAGTGTTCCAATGTCTT
B4 gave a Kd (TFAM (no MTS) [4]) of 6.09 ± 0.43 nM.

B5: COX1_27 +UVC (dsDNA)
DNA 1: B4 DNA 1
DNA 2: B4 DNA 2
modifications: UVC 1500 J/m2 photolesions (positions undefined)
With B5 the Kd (TFAM (no MTS) [5]) was 5.9 ± 0.1 nM.
